The supplement of paper PMC9170038

Tested on: K4 kissing-loop RNA reporter
Experiment: apparent KD of K4 kissing-loop reporter; higher = weaker reporter binding
Conditions: Eterna round: R107
Experimental: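 RNA-MaP round R107: designed RNA switches with theophylline, tryptophan, arginine or FMN aptamers are transcribed on-chip within common flanks. They are titrated with a labelled K4 kissing-loop RNA reporter in RNA-MaP buffer (100 mM Tris pH 7.5, 80 mM KCl, 4 mM MgCl2), without ligand or with the indicated ligand. Median apparent KD per design.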

[1] = input ligand: theophylline 20 uM
[2] = input ligand: tryptophan 2.4 mM
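Note: bound reporter read as fluorescence of individual clusters on recovered sequencing chips by microscopy, with normalized cluster intensities fitted with a binding model.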

| Sequence | apparent KD of K4 kissing-loop reporter (input ligand: FMN 200 uM) [nM] | apparent KD of K4 kissing-loop reporter (input ligand: arginine 13.2 mM) [nM] | apparent KD of K4 kissing-loop reporter (input ligand: none) [nM] | apparent KD of K4 kissing-loop reporter [1] [nM] | apparent KD of K4 kissing-loop reporter [2] [nM] |
| --- | --- | --- | --- | --- | --- |
| UCUAAGGUCGAACCGGUAUGAUCACCGGAUACCAGAGGCGAAAGCCUCCCUUGGCAGCCGAGUGUAGUGAUGUUACACGGGUUCU | 166 | 147 | 175 | 310 | 166 |
| UCUGUUGUAUAUGAUACCAGCAGUGAGAGACAGGAAGUAUAGUGAUGUUAUAUGAGAGAAUGCCCUUGGCAGCGUGUGCGGGUGG [SSTheophylB.X] | 138 | 130 | 165 | 116 | 99.1 |
| UCUUGCGGCGCAGGAUAUCCGUCUGUCUCCUGCGUCAUUCUGCAGUGAUGUUGCAGGUGACGGAUAGGAGAAGGGCGAACGUACA [Diinonorce] | 133 | 104 | 124 | 117 | 112 |
| UCUUUAGUAUAUGAUACCAGCAGUGAGAGACAGGAAGUAUAGUGAUGUUAUAUGAGAGAAUGCCCUUGGCAGCGUGUGCGGUGGG [SSTheophylB.T] | 132 | 103 | 93.4 | 119 | 101 |
| UGACAUUGCUCAGAUACCAGACAUGAGCAUCAGCCAUGUGCCAAACGUACAAUAAUAAAUGUCCCUUGGCAGCUGAGCAAUGUCU [TheoBX 14] | 74.2 | 33.1 | 53.1 | 100 | 44.8 |
| UGACAUUGCUCAGAUACCAGACUUGAGGAACACCCAAGUGCCAAAUAAACGUACAUAAAAGUCCCUUGGCAGCUGAGCAAUGUCU [TheoBX 11] | 66 | 34.1 | 62.5 | 104 | 45.3 |
| UGACAUUGCUCAGAUACCAGACUUGAGGAUCACCCAAGUGCCAAAUAAACGUACAUAAAAGUCCCUUGGCAGCUGAGCAAUGUCU [TheoBX 11] | 72.9 | 46.3 | 41.3 | 99 | 33.4 |
| UGACGUUUGGGAAGGAGCGGAAUGUAAUACGGAACGCGUGGAGAUGCAGUGAUGUUGCAGAUCCAGGUAGGUCGCCCAAGGGACG [Zainat] | 91.4 | 72 | 76.2 | 84.9 | 94.2 |
| UGACUGGACUGAAGGAGCGCGAAAACUCCUAGUGAUGUUAGGAAAACGAGACAAAGUCUCGCGCAGGUAGGUCGCAGUCUAGUCU [ArgBS 20 #SwitchBubble #StaticStem] | 131 | 102 | 121 | 129 | 113 |
| UGACUGGACUGAAGGAGCGCUUAACUCCUAGUGAUGUUAGGAUAACGAGACAAAGUCUCGAAGCAGGUAGGUCGCAGUCUAGUCU | 157 | 104 | 118 | 126 | 128 |
| UGACUGGAUGGAAGGAGCGCUAAACUCCUAGUGAUGUUAGGGAAACGAGACAAAGUCUCGAAGCAGGUAGGUCGCCAUCUAGUCU [FiskerMod 14 - Jieux - Same State - Arginine B] | 176 | 134 | 158 | 146 | 155 |
| UGACUGGAUGGAAGGAGCGCUAAACUCCUAGUGAUGUUAGGGAAAUGAGACAAAGUCUCAAGGCAGGUAGGUCGCCAUCUAGUCU [FiskerMod 16 - Jieux - Same State - Arginine B] | 142 | 78.6 | 174 | 506 | 177 |
| UGACUGGAUGGAAGGAGCGCUAAACUCCUAGUGAUGUUAGGGAUACGAGGCAAAGCCUCGAGGCAGGUAGGUCGCCAUCUAGUCU [FiskerMod 24 - Jieux - Same State - Arginine B] | 167 | 129 | 124 | 147 | 136 |
| UGAUAAAGCAGUGAUGUUGCAAGUAAUGAUACCAGUUAAGAAGAGAACCCUUGGCAGCAUAAAGUGCGCUCUAAUGAGUGUGCUU [whbob_SS_Theo_A_w51] | 82.9 | 138 | 103 | 169 | 91.3 |
| UGAUACCAGACGGCCGCCACUAGGACCGGGAGUGAUGUUCCAAAAUUAAAAUACUCGGCCGCCACUAGGACCGGGUCUGGUAUCU [TrypBX 25 #DoubleAptamer #SwitchBubble] | 225 | 137 | 162 | 205 | 75.4 |
| UGAUACCAGACUGAUACCAGCCAGUGAUGUUGGCUAAGCCGAAGAGGUGUCAAAGACACCGGCCCUUGGCAGCAGUCUGGUAUCU [#06 K4 Theophylline B Exclusion] | 132 | 117 | 114 | 117 | 117 |
| UGAUAGGACAGAAGGAGCGGAAGUGAUGUUUCCAAUGGAUAAAAGGUGUCAAAGACACCCUUCCAGGUAGGUCGCUGUCCUAUCU [ArgBX 17 #Palindromic #SwitchBubble #StaticStem] | 146 | 160 | 148 | 141 | 132 |
| UGAUAGGACAGAAGGAGCGGGAGUGAUGUUCCCAAUAAAAGGUCUAGCAAAGCUAGACCCUCCCAGGUAGGUCGCUGUCCUAUCU [ArgBX 2 #Palindromic #SwitchBubble #StaticStem] | 234 | 265 | 268 | 245 | 219 |
| UGAUAGGACAGAAGGAGCGGUAGUGAUGUUACCAAAAGGCUAAGGUGUCAAAAGACACCCUACCAGGUAGGUCGCUGUCCUAUCU | 131 | 131 | 137 | 121 | 103 |
| UGAUCACAGUGAUGUUGUGGCAAAAGUGAUACCAGCCGUGUACGAGGCCCUUGGCAGCACCAGGGCUGUACGUCGUUAGAUCCGG [theeternabot_exclusion_KL_Theo_A_33] | 211 | 156 | 194 | 177 | 169 |
| UGAUUUAACUGAAGGAGCGGCAAGAGAGAAGGAAAUAUAGUGAUGUUAUAUAAGAGAGAGAGCCAGGUAGGUCGCAGAGGGAGGA [ExArgB.E] | 126 | 126 | 173 | 178 | 137 |
| UGCACGGGCUCGGCCGCCACUCCCGCGGGUCGAAAGGUCCGCUACUGAGUGAUGUUCGGUUGGAGGAGGACCGGGAGCCCGUGCA [#2 Exclusion - Tryptophan B Attempt #24 (HarryS)] | 95.6 | 92.9 | 108 | 69.7 | 69.2 |

| Sequence | apparent KD of K4 kissing-loop reporter (input ligand: FMN 200 uM) [nM] | apparent KD of K4 kissing-loop reporter (input ligand: arginine 13.2 mM) [nM] | apparent KD of K4 kissing-loop reporter (input ligand: none) [nM] | apparent KD of K4 kissing-loop reporter [1] [nM] | apparent KD of K4 kissing-loop reporter [2] [nM] |
| --- | --- | --- | --- | --- | --- |
| UGCAGUGAUGUUGCUAUUUUUCUUGAUUAACGAGGACCGGUACGGCCGCCACUCGAUUUCUCUCUAGUCCAGUAUGUUGUUUGAU [whbob_EX_Tryp_A_t5] | 96.2 | 124 | 99.8 | 125 | 82.9 |
| UGCGCUGUGUACUGUAAUGUUAUGCGGGAUACCAGAGUCUUUUUAUUCCCUUGGCAGCUUGAGUGAUGUUUGAUGCCGUUCUUGU [plpkmullin] | 481 | 327 | 504 | 452 | 401 |
| UGCUGUCAAUAAGAUACCAGUUGGACUGAGUGAUGUUCAUCCAUUAUAUCUAUUCUGCUUAACCCUUGGCAGCUUGAUGACGUUU [theeternabot_exclusion_KL_Theo_B_6] | 174 | 149 | 180 | 191 | 182 |
| UGCUUUAUCAGAAGGAGCGCGUUAUUCAUAAUAAUAAUCAGUGAUGUUGAUAUAUGAUGAUUGCAGGUAGGUCGCUGAUAUAGCU [KL-XARG-B3] | 310 | 225 | 274 | 253 | 259 |
| UGGACCUGACUCGAUAAGAGUCAAUGAGAUACCAGCCACGAAAGUGGCCCUUGGCAGCUCUGCCAGUGAUGUUGGUCAAGGUCCU [#SwitchBubble 5 #StaticStem] | 1280 | 889 | 1550 | 584 | 1100 |
| UGGAGUUGACGAAAAGUCAACUCCCGAGAAGGAGCGGACGAAAGUCCAGGUAGGUCGCUCGCUACCAGUGAUGUUGGUACUCAAA | 127 | 182 | 156 | 192 | 135 |
| UGGAGUUGACGAAAAGUCAACUCCUGAGAAGGAGCGGACGAAAGUCCAGGUAGGUCGCUCACUACCAGUGAUGUUGGUACUAAAA | 160 | 157 | 141 | 66.6 | 203 |
| UGGAGUUGACGAAAAGUCAACUCCUGAGAUACCAGUGACGAAAGUCACCCUUGGCAGCUCACUGCCAGUGAUGUUGGUUUAUAAA [#OpenEnded 2] | 167 | 135 | 134 | 266 | 130 |
| UGGAGUUGACGAAAAGUCAACUCCUGAGAUACCAGUGACGAAAGUCACCCUUGGCAGCUCACUGGCAGUGAUGUUGCGCGAUAAA [#23 K4 Theophylline A Same State] | 376 | 288 | 364 | 367 | 402 |
| UGGAGUUGACGAAAAGUCAACUCCUGGGAAGGAGCGGACGAAAGUCCAGGUAGGUCGCCCACUACCAGUGAUGUUGGUACUCAAA | 178 | 196 | 170 | 266 | 169 |
| UGGAUAUAGUGAUGUUAUAUAGAGAUAGAUACCAGUUAAGAGAAUAGCCCUUGGCAGCUGAAAGAAGUAUCAUUAGAGAAGAAUG [ExTheophyl.Ab] | 212 | 147 | 207 | 170 | 137 |
| UGGAUAUAGUGAUGUUAUAUAGAGAUGGAUACCAGCAAAGAGAAUUGCCCUUGGCAGCCGAAAGAAGUAUCAUUAGAGAAGAAUG [ExTheophyl.Af] | 285 | 221 | 278 | 277 | 206 |
| UGGAUAUAGUGAUGUUAUAUAGAGAUGGAUACCAGCGAAGAGAAUUGCCCUUGGCAGCCGAAAGCAGUAUCAUUAGAGAAGAAUG [#19 K4 Theophylline A Exclusion] | 291 | 252 | 271 | 251 | 255 |
| UGGAUAUAGUGAUGUUAUAUAGAGAUGGAUACCAGCUGAGAGAAUAGCCCUUGGCAGCCGAAAGAAGUAUCAUUAGAGAAGAAUG [ExTheophyl.Aj] | 248 | 188 | 231 | 271 | 172 |
| UGGCGAGUGAUGUUCGUUGUUGUAGUGUGCCGAGGACCGGUACGGCCGCCACUCGGGUUGGUUGUUGUUGUUGUUGUUGUUGUUG [whbob_SS_tryp_A] | 127 | 110 | 112 | 119 | 76.1 |
| UGGGUGUAGUGAUGUUAUAUAGAGAAUGAUACCAGCUUAGAGAGGAGCCCUUGGCAGCGUAGACGAGUAUCAUUGGAGGAGGAGG [#22 K4 Theophylline A Exclusion] | 714 | 924 | 965 | 724 | 647 |
| UGUAAGCGCGUAGAUACCAGCAGACGAGUGAUGUUCAAAAGAUUAAGGAAAAGAAAGUAAUGCCCUUGGCAGCUAAUCAUAAGCG [whbob_Ex_Theo_B_sa92] | 243 | 460 | 466 | 517 | 295 |
| UGUACCGAGUCAGGAUAUCAUAAUAAUCGAGUGAUGUUCGAAUAACGACUGACAAAGUCGGUCGAUUGAGAAGGGACUUGGUACU [FmnBS 7 #SwitchBubble #StaticStem] | 150 | 342 | 444 | 362 | 378 |
| UGUACCGAGUCAGGAUAUGGCGUCGAAAGACGAAUCGUAGUGAUGUUACGGAUCUGCGAAAGCAGUCCAGAAGGGACUUGGUACU [FmnBS 26 G37+C49] | 125 | 172 | 163 | 155 | 182 |
| UGUACCGAGUCAGGAUAUGGCGUCGAAAGACGAAUGCUAGUGAUGUUAGGGAUCUGCGAAAGCAGUCUAGAAGGGACUUGGUACU [FmnBS 26 G36+U68] | 359 | 361 | 471 | 483 | 525 |
| UGUAUGGACUGAAGGAGCGGUAGAUAAACUGAGUGAUGUUCGGCAAAUAAAGGCGCAAGCCACCAGGUAGGUCGCAGUCCAUACU [KL-SSArg B1] | 289 | 182 | 235 | 236 | 205 |
